Source: patent US20200102347A1 (AUCTUS BIOLOGIES, published 2020)
Changes are numbered by the printed parent chain. Names and notes keep the numbering of the source. No end group written: not given here. *: point of attachment. RhodamineB = CCN(CC)c1ccc2c(-c3ccccc3C(=O)*)c3ccc(=[N+](CC)CC)cc-3oc2c1

T1: NativeRPtag(large)_with_Tags_and_Cys (Thermoanaerobacter tengcongensis)
T1 construct: Unlabeled in anisotropy assays; coupled through the engineered N-terminal Cys to SulfoLink agarose or maleimide plates in column, pull-down and ELISA assays
T1 chain: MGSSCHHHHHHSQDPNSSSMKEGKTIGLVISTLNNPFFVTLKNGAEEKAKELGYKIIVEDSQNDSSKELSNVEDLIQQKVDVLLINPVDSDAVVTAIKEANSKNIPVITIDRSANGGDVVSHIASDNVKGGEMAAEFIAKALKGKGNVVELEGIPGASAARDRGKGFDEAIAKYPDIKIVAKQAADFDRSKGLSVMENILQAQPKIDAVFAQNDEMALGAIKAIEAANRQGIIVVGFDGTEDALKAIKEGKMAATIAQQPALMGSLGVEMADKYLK

T2: MaturePDGF-β_NterminalPeptide
T2 construct: an N-terminal G was added and is left out of the numbering; also called PDGF-β peptide
T2 peptide: RhodamineB-GSLGSLTIAEPAMIAE

B1: RPtag(small) i4a (peptide)
peptide: RhodamineB-GEKAPNFIPAELKLITKENVQ
B2: RPtag(small) i8a (peptide)
peptide: RhodamineB-GEKIPNFAPAELKLITKENVQ
B3: RPtag(small) i15a (peptide)
peptide: RhodamineB-GEKIPNFIPAELKLATKENVQ
B4: RPtag(small) l12a (peptide)
peptide: RhodamineB-GEKIPNFIPAEAKLITKENVQ
B5: RPtag(small) n6a (peptide)
peptide: RhodamineB-GEKIPAFIPAELKLITKENVQ
B6: RPtag(small) p9a (peptide)
peptide: RhodamineB-GEKIPNFIAAELKLITKENVQ
B7: RPtag(small) q21a (peptide)
peptide: RhodamineB-GEKIPNFIPAELKLITKENVA
notes: built here from the native peptide with the stated change
B8: RPtag(small) t16a (peptide)
peptide: RhodamineB-GEKIPNFIPAELKLIAKENVQ
B9: RPtag(small) v20a (peptide)
peptide: RhodamineB-GEKIPNFIPAELKLITKENAQ
notes: as for B7
B10: RPtag(small) Nd1 (peptide)
peptide: RhodamineB-EKIPNFIPAELKLITKENVQ
B11: RPtag(small) Cd1 (peptide)
peptide: RhodamineB-GEKIPNFIPAELKLITKENV
B12: RPtag(small) Cd2 (peptide)
peptide: RhodamineB-GEKIPNFIPAELKLITKEN
B13: RPtag(small) Cd3 (peptide)
peptide: RhodamineB-GEKIPNFIPAELKLITKE
B14: RPtag(small) Cd4 (peptide)
peptide: RhodamineB-GEKIPNFIPAELKLITK
B15: RPtag(small) Nd2, Cd3 (peptide)
peptide: RhodamineB-KIPNFIPAELKLITKE
B16: RPtag(small) Nd2, Cd3, e18a (peptide)
peptide: RhodamineB-KIPNFIPAELKLITKA
B17: RPtag(small) Nd2, Cd3, p5a (peptide)
peptide: RhodamineB-KIANFIPAELKLITKE
B18: RPtag(small) Nd2, Cd3, p5a, e18a (peptide)
peptide: RhodamineB-KIANFIPAELKLITKA
B19: RPtag(small) Nd2, Cd4 (peptide)
peptide: RhodamineB-KIPNFIPAELKLITK
B20: RPtag(small) Nd2, Cd4, p5a (peptide)
peptide: RhodamineB-KIANFIPAELKLITK
B21: RPtag(small) Nd2, e18a, v20a, q21a (peptide)
peptide: RhodamineB-KIPNFIPAELKLITKANAA
B22: RPtag(small) Nd2, p5a, e18a, v20a, q21a (peptide)
peptide: RhodamineB-KIANFIPAELKLITKANAA
B23: a253k (designed binder)
single chain: T1 chain with A253K
notes: also called RPtag(large) A253K
B24: a253r (designed binder)
single chain: T1 chain with A253R
notes: also called RPtag(large) A253R
B25: d126a (designed binder)
single chain: T1 chain with D126A
notes: also called RPtag(large) D126A
B26: d126w (designed binder)
single chain: T1 chain with D126W
notes: also called RPtag(large) D126W
B27: f137s (designed binder)
single chain: T1 chain with F137S
notes: also called RPtag(large) F137S
B28: f137t (designed binder)
single chain: T1 chain with F137T
notes: also called RPtag(large) F137T
B29: g130a (designed binder)
single chain: T1 chain with G130A
notes: also called RPtag(large) G130A
B30: g130v (designed binder)
single chain: T1 chain with G130V
notes: also called RPtag(large) G130V
B31: h122a (designed binder)
single chain: T1 chain with H122A
notes: also called RPtag(large) H122A
B32: h122f (designed binder)
single chain: T1 chain with H122F
notes: also called RPtag(large) H122F
B33: h122l (designed binder)
single chain: T1 chain with H122L
notes: also called RPtag(large) H122L

Molecular target: T1, NativeRPtag(large)_with_Tags_and_Cys
Assay: fluorescence anisotropy

Binder	Kd
B1	0.26 nM
B2	1.1 nM
B3	4.5 nM
B4	4.7 nM
B5	0.34 nM
B6	0.18 nM
B7	0.1 nM
B8	1.2 nM
B9	0.18 nM
B10	0.25 nM
B11	0.55 nM
B12	1.1 nM
B13	1.2 nM
B14	1 nM
B15	0.56 nM
B16	0.13 nM
B17	0.64 nM
B18	0.56 nM
B19	0.41 nM
B20	0.82 nM
B21	0.36 nM
B22	0.16 nM

Molecular target: T1, NativeRPtag(large)_with_Tags_and_Cys
Assay: calculated from koff and Kd

Binder	kon
B1	400000 M⁻¹ s⁻¹
B2	1.43e+06 M⁻¹ s⁻¹
B3	4.17e+06 M⁻¹ s⁻¹
B4	717000 M⁻¹ s⁻¹
B5	75000 M⁻¹ s⁻¹
B6	233000 M⁻¹ s⁻¹
B7	583000 M⁻¹ s⁻¹
B8	1.25e+06 M⁻¹ s⁻¹
B9	1.13e+06 M⁻¹ s⁻¹
B10	567000 M⁻¹ s⁻¹
B11	183000 M⁻¹ s⁻¹
B12	1.63e+06 M⁻¹ s⁻¹
B13	1.83e+06 M⁻¹ s⁻¹
B14	3.67e+06 M⁻¹ s⁻¹
B15	1.37e+06 M⁻¹ s⁻¹
B16	6.67e+06 M⁻¹ s⁻¹
B17	4.33e+06 M⁻¹ s⁻¹
B18	5.5e+06 M⁻¹ s⁻¹
B19	3.33e+06 M⁻¹ s⁻¹
B20	3.67e+06 M⁻¹ s⁻¹
B21	600000 M⁻¹ s⁻¹
B22	3.33e+06 M⁻¹ s⁻¹

Molecular target: T1, NativeRPtag(large)_with_Tags_and_Cys
Assay: fluorescence anisotropy, competitor chase

Binder	koff
B1	0.0001 s⁻¹
B2	0.0015 s⁻¹
B3	0.0183 s⁻¹
B4	0.00333 s⁻¹
B5	2.5e-05 s⁻¹
B6	4e-05 s⁻¹
B7	5.67e-05 s⁻¹
B8	0.00148 s⁻¹
B9	0.0002 s⁻¹
B10	0.000147 s⁻¹
B11	0.000102 s⁻¹
B12	0.00183 s⁻¹
B13	0.002 s⁻¹
B14	0.00367 s⁻¹
B15	0.000767 s⁻¹
B16	0.000883 s⁻¹
B17	0.00267 s⁻¹
B18	0.003 s⁻¹
B19	0.00132 s⁻¹
B20	0.003 s⁻¹
B21	0.000383 s⁻¹
B22	0.000217 s⁻¹

Molecular target: T1, NativeRPtag(large)_with_Tags_and_Cys
Assay: fluorescence anisotropy, association kinetics

Binder	Keq (S-S*)	kf (S to S*)	kr (S* to S)
B1	0.9	0.086 min⁻¹	0.098 min⁻¹
B2	0.8	0.078 min⁻¹	0.046 min⁻¹
B3	1.4	0.077 min⁻¹	0.053 min⁻¹
B4	1.1	0.089 min⁻¹	0.081 min⁻¹
B5	1.3	0.082 min⁻¹	0.068 min⁻¹
B6	2.7	0.092 min⁻¹	0.04 min⁻¹
B7	0.8	0.087 min⁻¹	0.11 min⁻¹
B8	2.5	0.071 min⁻¹	0.038 min⁻¹
B9	1.5	0.073 min⁻¹	0.05 min⁻¹
B10	2.7	0.064 min⁻¹	0.024 min⁻¹
B11	2.5	0.1 min⁻¹	0.042 min⁻¹
B12	3.5	0.15 min⁻¹	0.043 min⁻¹
B13	3.1	0.014 min⁻¹	0.045 min⁻¹
B14	1.3	0.014 min⁻¹	0.11 min⁻¹
B15	0.6	0.081 min⁻¹	0.14 min⁻¹
B16	0.3	0.084 min⁻¹	0.26 min⁻¹
B17	0.6	0.093 min⁻¹	0.16 min⁻¹
B18	0.7	0.086 min⁻¹	0.13 min⁻¹
B19	0.7	0.093 min⁻¹	0.13 min⁻¹
B20	0.8	0.11 min⁻¹	0.14 min⁻¹
B21	0.8	0.045 min⁻¹	0.06 min⁻¹
B22	0.4	0.05 min⁻¹	0.14 min⁻¹

Molecular target: B19
Assay: fluorescence anisotropy; 2 nM rhodamine Nd2Cd4, unlabeled RPtag large variant titrated; bar of Ka = 1/Kd, right axis
Protocol: (§1) After the incubation, fluorescence anisotropy was measured, and the resultant curves were fit with the equation f=y0+(ymax−y0)*(Ptot+x+Kd−sqrt((Ptot+x+Kd)\hat{ }2−4*Ptot*x))/(2*Ptot), where y0 is the baseline anisotropy, ymax is the maximum anisotropy, Ptot is the fixed concentration of labeled peptide used, x is the variable concentration of protein used, and Kd is the measured Kd. […] Buffer was 50 mM Tris pH 8.0, 0.005% Tween20.

Binder	binding result
B23	binds
B24	binds
B25	binds
B26	binds
B27	binds
B28	binds
B29	binds
B30	binds
B31	binds
B32	binds
B33	binds

Molecular target: T2, MaturePDGF-β_NterminalPeptide
Assay: fluorescence anisotropy; 20 nM rhodamine PDGF-β N-terminal peptide, unlabeled RPtag large variant titrated; bar of Ka = 1/Kd, left axis
Protocol: as §1

Binder	binding result
B23	binds
B24	binds
B25	binds
B26	binds
B27	binds
B28	binds
B29	binds
B30	binds
B31	binds
B32	binds
B33	binds
